# B1: LINE1-full (parent)
# chain: UACGUAGGUGGUUUUCCCCUGAUAGUGCUAAGGGGGCCUGGAAGUUUGGACUGGGCAGAGCUCAACACAGCGUGGCAAAGUGGCUGUGGCUAGACUGCCUCUCUGGAUUCCUCGUCACUCAGCAGGGCAUCUCUGAGAGAAAUGCC
# Variants of: B1
# Experiment: self-cleavage, relative activity (ratio to wild type); higher = more cleavage; in vitro, sequencing; the parent is a self-cleaving ribozyme
row,Variant,self-cleavage
1,U104C C123A,1.73
2,G105U U109C,1.93
3,U102C G106A,1.19
4,A107G A129U,1.84
5,U104C A124G,2.57
6,U104C C145G,2.3
7,U104A G122C,1.48
8,U102C C120U,1.71
9,U102C C120A,2.26
10,A107C U108A,1.36
11,U102C C110U,1.78
12,U102C A121U,2.05
13,U104A U143A,0.88
14,C103A U112G,0.72
15,C103A U112C,1.01
16,G106A U108C,1.61
17,U104C U143A,1.56
18,U104C U143C,2.1
19,G105A A117G,1.59
20,G105A A117U,1.74
21,G106A U112A,1.64
22,U104C A138U,1.87
23,U104C A138G,1.87
24,C103A A138G,1.6

row,Variant,self-cleavage
1,U102C U112A,1.44
2,U102C U112G,1.15
3,U102C U112C,1.53
4,U104C U108A,2.04
5,U102C A107G,1.67
6,U102C A107U,0.42
7,G105U U108C,1.98
8,G105U U108A,1.12
9,G106A U109C,1.86
10,U102C A138G,1.42
11,G106A A124G,1.81
12,C103U G114A,1.19
13,G105A U115C,1.54
14,U104A U119C,1.47
15,U104A U119G,0.64
16,A107G G127C,1.72
17,A107G G127A,1.81
18,U104C A136G,1.62
19,U104A A117U,1.31
20,C103U A138G,1.49
21,C103U A138U,1.07
22,A107G C131U,1.83
23,U104A C116A,1.11
24,U104A A124U,1.25

row,Variant,self-cleavage
1,U104A A140G,0.47
2,U104C G125U,1.68
3,U104C U109C,1.39
4,U104C U109G,1.53
5,A107C U143C,1.67
6,U102C U104G,1.6
7,U102C U104C,0.95
8,U102C C113G,1.08
9,U102C C113A,1.63
10,U102C C113U,1.48
11,U102C C128A,0.39
12,U102C C128U,1.67
13,U102C C116U,1.72
14,U104A A107G,0.9
15,C103U A117G,1.41
16,C103U A117C,2.49
17,U102C A129U,1.22
18,U102C U143C,1.09
19,U102C U143G,1.59
20,G106U U132C,1.31
21,G105A U134A,1.54
22,G105A U134C,1.44
23,U104C U130C,1.71
24,U102G A129G,0.88

row,Variant,self-cleavage
1,U102C A117U,1.07
2,U102C A117G,1.6
3,U104C U134G,0.75
4,C103A A129G,1.59
5,U102C G137A,1.8
6,U104C G127A,1.47
7,A107C G114A,1.74
8,G106A U134G,1.86
9,C103U U119C,1.7
10,U104G C123U,1.25
11,C103U U109C,0.53
12,U104C U115A,0.22
13,U104A U134A,1.35
14,U104A U134C,1.53
15,U102C C118U,1.59
16,U104G U134C,1.39
17,U102C A136G,1.34
18,G105U A140U,1.53
19,U104G U132A,1.06
20,U104A G114U,1.09
21,G105U A124U,0.22
22,U104C G135A,1.52
23,A107G A141G,1.64
24,A107G A141C,1.51

row,Variant,self-cleavage
1,U102C G122U,1.63
2,U102C U119A,1.45
3,U102C U119C,1.69
4,G106A U115C,1.43
5,A107C,1.56
6,A107G,1.46
7,U102C U132A,1.34
8,U104A U112A,1.4
9,U104A U112C,1.32
10,U104A A129G,1.27
11,A107G A140U,0.94
12,A107C U109C,2.7
13,U104A U108C,1.14
14,C103A G135A,0.87
15,G106U A129G,0.98
16,U104A U130C,1.51
17,U104A C146U,1.35
18,U102C G114U,1.62
19,U102C G114A,1.21
20,C103U A136G,1.39
21,A107G A124U,1.27
22,U104C A129U,1.73
23,U104C A129G,2.04
24,U104C U112C,1.66

row,Variant,self-cleavage
1,G106U A117U,1.26
2,U102G A121G,0.59
3,C103U A140G,1.44
4,G106A U119A,0.75
5,G106A U119C,1.58
6,C103A A140G,1.23
7,U102C A124G,1.11
8,G105U G144A,1.31
9,U104A,1.14
10,U104G,1.19
11,U104C,1.65
12,U102C U130C,1.24
13,U102A U143A,1.08
14,U102A U143C,1.25
15,G106C U108C,2.2
16,U104C A107G,1.86
17,A107G G126A,1.71
18,G106A G135U,1.88
19,C103A U130C,1.9
20,A107G A142G,1.83
21,U104C A121U,1.59
22,U104C A121G,1.56
23,U104G A140C,0.28
24,U102C C131A,1.48

row,Variant,self-cleavage
1,A107G A138U,1.44
2,U104C A117U,1.73
3,U102C U109A,1.31
4,G106A A142U,1.29
5,G105A A141G,0.87
6,G105A A141U,0
7,G106U G126A,1.15
8,U104G U130A,0
9,U102C G125U,1.23
10,U104A A142G,1.43
11,G105A A142G,1.24
12,C103U A107U,1.2
13,A107G A136G,1.31
14,U102C A140U,1.48
15,U102C A140G,1.45
16,C103U A124G,1.56
17,G105A G127U,1.31
18,U102C G144A,1.15
19,U102C G144C,1.17
20,A107G A117C,0.66
21,A107G A117G,1.85
22,A107G A117U,1.85
23,U104C G144A,2.03
